Data published in PMC9018702.

What was measured:
MBP-TDR [1] = biological target: T1, MBP-TDR (Oryza sativa (ORF cloned from ZH11), UniProt Q6YUS3 1-552); experiment: EMSA; EMSA: 10 mM Tris-HCl pH 7.5, 50 mM KCl, 5 mM MgCl2, 1 mM DTT, 2.5% glycerol, 0.05% NP-40, 50 ng/uL poly(dI-dC), 10 fmol probe, 1 ug protein in 20 uL, room tempe
MBP-TDR [2] = biological target: T1, MBP-TDR; experiment: competition; 10-, 20-, 100-fold excess unlabeled probe eliminates shift; EMSA: 10 mM Tris-HCl pH 7.5, 50 mM KCl, 5 mM MgCl2, 1 mM DTT, 2.5% glycerol, 0.05% NP-40, 50 ng/uL poly(dI-dC), 10 fmol probe, 1 ug protein in 20 uL, room tempe

Binder	binding result (MBP-TDR [1])	binding result (MBP-TDR [2])
EAT1 promoter P1 probe (dsDNA) DNA 1: GCGTATCGTGGTCATCTGTCTATTTTACATGCACTTGTAGCTGGATAAA DNA 2: TTTATCCAGCTACAAGTGCATGTAAAATAGACAGATGACCACGATACGC	binds	
EAT1 promoter P1 unlabeled competitor (dsDNA) DNA 1: GCGTATCGTGGTCATCTGTCTATTTTACATGCACTTGTAGCTGGATAAA DNA 2: TTTATCCAGCTACAAGTGCATGTAAAATAGACAGATGACCACGATACGC		binds
